The record followed here is a protein production outcome set (Wang et al. 2014).

This series is described as follows: label from the status in PepcDB records.

In the case of “MDLTKQFPRSPVDRLGGMDHLKRVIDKARAHVAGTLGEYTYNCPLDQAFFSFFGLDHEKFAEAVKSRPQDQDMLAWVHSQSPRSKNPKEVESFNREYESRSPDSPEKWDYFRSVRDSLAPGRTDITTWVKLLDLEEKRPV”, the protein production entry is “not failed”.
As for “MDMLFQWLLLTAAVAAGWAVGRYGNRSGRASRAIMDEDSVRDRLQFLFTNYSDQAVDNFVQSLAVNKDTVSLHLSIGSHFRNKGETDRAILIHQNLLARPELPARYSPQVTQELAMDYLNAGLLDRAEALFHQLMGDREYGRRSAIALIELYQQEREWEKAAQVAKTLTRSDADPATFKALAYITCELSDGALSRNDDRWTAQKLAKEALDYDRSCVRATLLLMKLQIRQGNFREAANQSLKIFDQNPEFGPEAIDRLMKLEREHGDVSRLYKKLRKLYEQYPSTSLLLALVESVERSSGRPAAIDLLRMELETRPSVRGLLRLVEMAGYEKGMTTDEGRLVSRIGHLILANRPVYRCVSCGFSGQQLHWLCPSCKQWETVRPIQGVEAE”, the entry is “failed”; as for “MDMRVSWFLLLLPFVLTSALAATSAASHASGPPAFMGQLTLLLLVAGATAFASFRLGLVPIIGFLFAGVLAGPSALGIIDDPALIGAASEIGVMLLLFTIGIEFSLDKLARIFRLIFVGGGLQVLLTVAAVTGVLLAFGVSLPNAVFTGFLLSLSSTAIVTKILESRGGVGSPTGQASLGILIFQDLAVVVMVLLVPMLAGQGGGAGGLVVALLKAGGIVAAVLLLARRVVPKLLEVVARTCSQEIFLLSTLSLCFATAYLTSLAGVSLALGAFLAGLLVSESRFGQQAFGEILPLQILFSAAFFLSVGLQLDLGFLWTHLPLVLGAVAVFAVLKALAAALSVRLLGFPLATAAATGWLLAQVGEFSFVLESSGRALGLSPAGLGETGTQTFIAATVLLMALTPVMATLGERLGALGRARPAPTAAPAEAPTRAEPNPEAPLAHLSGHVLVAGFGDHARRLVKGLAAQQVPFGVLTLSPDGAAQVTAHGYPVLIGDYARAGLLGDAGLASARALVVLDDVPEMTARVIGVARTLNPELTIVAHTDEPGEIATLRGVGATHVLTSTDAVARGVLGL”, “failed”; as for “MDMTYNMRNAMASSRNMEEPQYDMSTIDLTQNSMNTNYLMNGSVLTNAYNNDYIVNNRDKYTGDMISQLKIDQGIPTYSHTLPMNGTTLADTNDSLNIQGMMRTNMDTTGFDGYSHIMNYNNTQNTIQTNPITYRMEDYNNLNNDVMYINPTTGEKFSAEYVNNIPTNDSDNMLYSNNFKNNSINMNTLLNSHYNNLPYPMPIYESMNNPQMYMQHMNQKQTVNIPLQHGEKKSAARNISTVNKRRIKTKKFFPCC”, “failed”.
Consider “MDMYHTKILKAIESEDYISVRRRVLRQLVESLIYEGIITPARIEKEEQILFLIQGLDEDNKSVTYECYGRERITFGRISIDSLIVRVQDGKQEIQSVAQFLEEVFRVVNVEQTKLDSFIHELEQTIFKDTIAQYERCNKLKYTQKSYDELENHLIDGHPYHPSYKARIGFQYRDNFRYGYEFMRPIKLIWIAAHKKNATVGYENEVIYDKILKSEVGERKLEAYKERIHSMGCDPKQYLFIPVHPWQWENFIISNYAEDIQDKGIIYLGESADDYCAQQSMRTLRNVTNPKRPYVKVSLNILNTSTLRTLKPYSVASAPAISNWLSNVVSQDSYLRDESRVILLKEFSSVMYDTNKKATYGSLGCIWRESVHHYLGEQEDAVPFNGLYAKEKDGTPIIDAWLNKYGIENWLRLLIQKAIIPVIHLVVEHGIALESHGQNMILVHKEGLPVRIALKDFHEGLEFYRPFLKEMNKCPDFTKMHKTYANGKMNDFFEMDRIECLQEMVLDALFLFNVGELAFVLADKYEWKEESFWMIVVEEIENHFRKYPHLKDRFESIQLYTPTFYAEQLTKRRLYIDVESLVHEVPNPLYRARQLNIQKSVATGGNYANC”, for which the protein production result is “failed”.
“MDNALTFVISTLCILALCYRFYGVFFVRKVLRADDSVVTPSHTFEDGKNYVPTKKWVNAGQHFAAIAAAGPLVGPVLAAQFGYLPGFLWLLVGCVVGGAVHDTVVLFASMKHNGKSLSNVAKAELGPVAGWCTGLAMLFIITITMAGLSMVVVHALERNPWGTFAVFMTIPIAIAVGLYERFTGNHKGATWVGIIAIMVAVLAGPYIQGTLLGDWLTLRVDSVALALPIYAFFASALPVWLLLTPRGYLSSFMKIGVFGALVVGVVIINPTIQFPALTDFIHGGGPVLAGPVWPFISITIACGAISGFHAFIGSGTTPKLVDKWSDIRPVAFGAMLAECMVAVLALVAATALHPADYFAINASPAAFASLGMEVVDLPHLSQEIGMDLAGRTGGAVTLAVGMTFIFTKLPWFATLSSYFFQFVIMFEAVFILTAVDSGTRVARYLIQDLGGDLYAPLKRLDWIPGSIGASVAACALWGYLLTSGDINSVWALFGVSNQLMASIGLIIGATIILRVAAKRIYMLTCLIPLAYLFVTVNYAGYWMIANVYLNTQARGYNPINAGISAIMMVLGLIILITAFGKWKTMLALPKSLRSGEVPAPSLP”: the protein production result is given as “failed”.
On to “MDNDRDTVEFWSSLFQSFADSEPKDNPYPVVRSPIMTMSTPMAIDEPVEPWKVLEYGGKEVRPMAIDEPAEPWKALEYGGKDVRPMAIDVPAEPWKVGGKEAQPANAAAEAGYKNVNTDQEKSTQKATEKVIM”, for which the protein production result is on record as “not failed”.
For the sequence “MDNITFPSQGSLSSSNQTFDSQSAARNSNAPPEYVNQGLLLWNQTRERWVGKDKPNNPVDHNQGAKLNWNTATYDSLLGSNKLFPQPIPLTEMVDFLVDIWEQEGLYD”, the protein production entry was “failed”.
On to “MDNLFYYMIIQNDRIQPIIVRQPQTVIIHSQPKLPITLDLPPQNIILKNEDPQPIIVRQSNPNIIIEKSQNDFYNHPNFHIGLHDKVNSMSDINNTNIKEQPIKDNMIEDMQNINNADTQFYYNNQNVINENNVLPTHYSYLNNGVFNKEHNYDPYNFTLYSNK”, for which the protein production entry was “failed”.
On to “MDPAGASVASAIGGEGEKFAVGNIYSVKVITGDEFRGIGTKPRPGHLKNTRMVNASFITGLSYLGKTEDPLDSDNFSVDLNGLRAKEALAIRQAEADAERMGVGVTAEAQSIFDALSKTLPVQWENSDILVMKEVRVRSPYLSDCVFGGTDAANNRVKKVLELERRRLQLFGT”, for which the protein production entry is listed as “failed”.
For “MDPAVFEEWMMIILVTVLIGFMGFIVWDLAKKSKAGKFGTLILFFVLGLGVLAFIIKSVVVGFLEGV”, the protein production entry is given as “failed”.
For “MDPIESVEYNGFETSNGNVDHGWKKVVYPKRHRKQKQADQATANGGKTVASNGTVANGGDNVFRSLEEQAEDRRRRILAAKMTAIDSDDDGVVRSKHRSNGYGDDGYDFDGSDDEIATLKVEEVKKPKPKKEKKPKVSLPEAASKIDPLNLEAFLVEASESYASQPEIQLMRFADYFGRALSGVSSVQFPWVKMFKESPLSKLIEVPLAHIPEPVYKTSVDWINHRPIEALGAFVLWAFDCILTDLAAQQGGAKGGKKGGQQTTSKSQVAIFVALAMVLRRKPDALTNVLPTLRENPKYQGQDKLPVTVWMMAQASQGDIAVGLYSWAHNLLPVVGNKNCNPQSRDLILQLVEKILTNPKARTILVNGAVRKGERLIPPPSFEILLRLTFPASSARVKATERFEAIYPLLKEVALAGAPGSKAMKQVTQQIFTFALKLAGEGNPVLAKEATAIAIWSVTQNFDCCKHWDNLYKENLEASVAVLKKLVEEWKEHSVKLSSSPNDALTLNRTMKSFRLKNEEVITEGGANASLYKEADKSCKTISGRLSRGSGCLKGTAITLVFLAAAGAAAAAVLSSNPEVTNELKNLVDSLELHEYINKYTEVISTALKK”, the protein production entry was “failed”.
Take “MDPLNLSWYDDDLERQNWSRPFNGSDGKADRPHYNYYATLLTLLIAVIVFGNVLVCMAVSREKALQTTTNYLIVSLAVADLLVATLVMPWVVYLEVVGEWKFSRIHCDIFVTLDVMMCTASILNLCAISIDRYTAVAMPMLYNTRYSSKRRVTVMISIVWVLSFTISCPLLFGLNNADQNECIIANPAFVVYSSIVSFYVPFIVTLLVYIKIYIVLRRRRKRVNTKRSSRAFRAHLRAPLKGNCTHPEDMKLCTVIMKSNGSFPVNRRRVEAARRAQELEMEMLSSTSPPERTRYSPIPPSHHQLTLPDPSHHGLHSTPDSPAKPEKNGHAKDHPKIAKIFEIQTMPNGKTRTSLKTMSRRKLSQQKEKKATQMLAIVLGVFIICWLPFFITHILNIHCDCNIPPVLYSAFTWLGYVNSAVNPIIYTTFNIEFRKAFLKILHC”: the protein production entry was “failed”.
For the sequence “MDPNKVEISRLEALPQDLLREIVAKIGVKSAEDYHNCILSCKELGASANDERVLKTLNLALLVKKPLSCRKHLLIMKKCLANNNPDAHYIKGIIWYFNLDHCDVDLHHIGIAANGGQKEAIYMYAMLLLCRGRTEEGKTYMSQLEWAKTPPWLKRVGNKSKLH”, the protein production result was “failed”.
“MDPRKVNELRAFVKMCKQDPSVLHTEEMRFLREWVESMGGKVPPATQKAKSEENTKEEKPDSKKVEEDLKADEPSSEESDLEIDKEGVIEPDTDAPQEMGDENAEITEEMMDQANDKKVAAIEALNDGELQKAIDLFTDAIKLNPRLAILYAKRASVFVKLQKPNAAIRDCDRAIEINPDSAQPYKWRGKAHRLLGHWEEAAHDLALACKLDYDEDASAMLKEVQPRAQKIAEHRRKYERKREEREIKERIERVKKAREEHERAQREEEARRQSGAQYGSFPGGFPGGMPGNFPGGMPGMGGGMPGMAGMPGLNEILSDPEVLAAMQDPEVMVAFQDVAQNPANMSKYQSNPKVMNLISKLSAKFGGQA”: the protein production entry is listed as “failed”.
As for “MDPVLLLSALLLLAFGLIGVGTAEPGLLQDHLLRVGAALLALVLGHLLPPRLLLRYALHALVGVLLLLVLVLLVGDGPGGVRRWFYLGPVALQPSELAKLALILYLSSFVGRRGEDYPILGPVLAVGSLVGLVLVEPDFATAAFLAGLAVLLFVLAGIPWPRLLGMGLAVALVVLPFSGLYLAQFRYVSERFANFVDYLQGESEPGGGAYQVVQAKKALLLGGPFGQGPGATLPHLPEAHNDMVFASVVFATGWLGGAVVFLLYTLILLRSLAVGLALKGGERLLALGLGLYLALQAALNIGVTLGVLPVTGVPLPLVSYGGSSLLVSGFAVGLLSRLAREAAERPRRKGVAR”, the protein production result is “failed”.
With “MDQNVPISKKLWNIVRFLLYMIRKGVSKNKLIADFNATLKRGKNLMFHQRRRVHAGSTASAALNATSATASSRQEYEFSCSNTPNYSFPFSNMAFMRKKSHNNLFTCGQTPQTLDDDVAAARAVLELLNGVGEKGNVTPADLTVALSPYFPGFGQTPLVRPLRVTDSPFPLTPENGDVANGHVDKAADDFIKKFYKNLNQQKKMIEFS”, the protein production entry is “failed”.
For “MDQSTLRHRITDQFSYRGERADIWRAFDLLFDTDEFLNLGYSEWYQPHIAGSSQRRLVTEVGSRVASHLPTTDGVRLLDVGCGRGGPALHLAYQFGFNVTGVDLVPYNIQMATENARGKHLDSEFIIGDATQLPFTRDSFTACTAIDALVYLPERNRVFATVADTLEPEGVLVVSDLVMQSDVTETERRLVDSFADAWDMPSLGTVEGYKAALDETSFELKAVEDITKHSVGRFRKWTTLYLQLLTSPLRALIERLLGAYDLDPPAITEQVRKAHHALPFLRHVIFVAELETT”, the protein production result was “failed”.
On to “MDRDELVRYLDAYLRIQDFPQDPSLNGLQVEGKRTVRKVGAAVDAGEAIFRKALEEEVDFLIVHHGLFWGKPFPIVGHHKRRLETLFQGGINLYAAHLPLDAHEEVGNNFVLARELGLVDLTPWDVGVKGRFPQPTPLLQVADRLGQLTGMQPLVHQGGLDHVETVILVSGSGTGLLPKVDADLFVTGEPKHSVFHETFERGLNVIYAGHYDTETFGVKALAAHLEARFGLPWVFLDHPTGL”, for which the protein production entry is “not failed”.
